# Assay results reported in article PMC3731272, “Evidence for a Novel Mechanism of the PAK1 Interaction with the Rho-GTPases Cdc42 and Rac” (PLoS ONE, 2013).
# B1: Myc-Cdc42 (natural protein)
# chain: not shown
# notes: Rho GTPase Cdc42; source: 293T cells, coexpressed, in cell extract
# Target: T1, GFP-PAK1^S79A (UniProt Q13153 1-545, S79A)
# T1 construct: source: 293T cells, expressed, in cell extract / lysate
# Assay: co-IP; GFP-PAK1 (WT or S79A) coexpressed with Myc-Cdc42 in 293T cells; extracts immunoprecipitated with anti-GFP, blotted with anti-Myc; lysis buffer 50 mM HEPES pH 7.4, 150 mM NaCl, 1 mM EDTA, 10% glycerol, 1% Triton X100 with phosphatase inhibitors; antibodies overnight at 4°C
# Conditions: partners not purified
# T1 sequence (Q13153 whole entry S79A): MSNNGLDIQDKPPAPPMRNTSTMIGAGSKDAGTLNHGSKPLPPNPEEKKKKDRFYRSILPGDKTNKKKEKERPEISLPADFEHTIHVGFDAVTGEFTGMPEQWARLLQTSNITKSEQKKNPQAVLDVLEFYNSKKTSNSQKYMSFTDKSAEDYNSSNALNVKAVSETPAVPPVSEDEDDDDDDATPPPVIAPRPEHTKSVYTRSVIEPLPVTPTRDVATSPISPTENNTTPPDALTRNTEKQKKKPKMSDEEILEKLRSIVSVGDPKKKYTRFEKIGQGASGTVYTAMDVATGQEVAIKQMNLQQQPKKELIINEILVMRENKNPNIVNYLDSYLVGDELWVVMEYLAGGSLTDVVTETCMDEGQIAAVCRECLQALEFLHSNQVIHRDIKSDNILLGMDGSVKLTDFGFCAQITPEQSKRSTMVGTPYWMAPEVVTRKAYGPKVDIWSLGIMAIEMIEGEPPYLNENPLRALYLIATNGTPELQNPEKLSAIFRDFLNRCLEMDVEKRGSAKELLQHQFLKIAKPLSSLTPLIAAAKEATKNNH
binder,measurement,value
B1,fold reduction of binding against wild type PAK1,~3 fold
